Source: article PMC8510529 (mBio, 2021)
Residue numbers refer to the chain shown, from its start.

B1: WNV-116 (antibody, V domains shown)
VH: QMQLVESGGGVVQPGRSLRLSCVASGFNFKTYVMNWVRQAPGKGLEWVAVILSDGDNKYYADSVKGRFTISRDNSKNTLFLQMDSLRADDTAVYYCTRVPHCSTSSCYKEYYNYYMDVWGKGTTVSVSS
VL: EIVLTQSPATLSLSPGDRATLSCRASQSLSTSLAWYQQKPGQAPRLVIYDASNRAADIPARFSGSGSGTDFTLTIRSLEPEDFAVYYCQQRSNWPPRYTFGQGTKLEIK
B2: WNV-95 (antibody, V domains shown)
VH: QVQLQESGPGLVKPSQTLSLTCTVSGGSINSGAFYWSWIRQHPGKGLEWIGFIYYSGSTYYNPSLRSRVTISVDTSKNQFSLKLISVTAADTAVYYCARDRPDDPGPYFDSWGRGTLVTVSS
VL: QSALTQPASVSGSPGQSITISCTGTSNDVGRYNSVSWYQQHPGNAPKLMIYDVSNRPSGVSNRFSGSKSGNTASLTISGLQAEDEADYYCSSYTSSSSVVFGGGTKLTVL
B3: WNV-100 (antibody, V domains shown)
VH: QLQLQESGSGLVKPSQTLSLTCTVSGDSIGSGGFSWTWIRQPPGKGLEWIGNIYHSGGTYYNPSLKSRVTISIDNSTHFSLKLSSVTAADSAVYYCARDRGMVIKRRPWSYGLDVWGQGTTVSVSS
VL: QSVLTQPPSASGTPGQRVTISCSGGSSNIGSNSVSWYQHLPRTAPKLLIYSNNQRSSGVPDRFSGSKSGTSASLAISGLQSDDEADYYCAAWDDSLHVLFGGGTKLTVL
B4: WNV-96 (antibody, V domains shown)
VH: QVQLVQSGAEVKKPGASVKVSCRPSGYIFTNYYIEWVRQAPGQGLEWMGIINPSGGKTTYAQKFQGRVTMTSDTSTSTVYMELSSLRSDDTAVYYCARDGNGSDYWGQGTRVTVSS
VL: DVQMTQSPSSLSASVGDRVTITCRASQNINNYLNWYQQKPGRAPKLLIYATSNLESGVPSRFSGSRSGADFTLTISSLQPEDFASYYCQQSYNAPRTFGHGTKVEIK
notes: also called IgG1-WT variant of WNV-96
B5: WNV-113 (antibody, V domains shown)
VH: QITLKESGPTLVKPTQTLTVTCTFSGFSLNTNGVGVGWIRQPPGKALEWLALIYWDDVKRYRPSLESRLTITKDTSKNQVVLTMTDMDPVDTGTYYCAHRFHSRGWYTFDYWGQGTRVTVSS
VL: SYVLTQPPSVSVAPGQTARITCGGNNIGGKNVHWYQQKPGQAPVLVVYDDNDRPSGIPERFSGSNSGNTATLTISRVEAGDEADFYCQVWDSNSEHVVFGGGTKLTVL
B6: WNV-99 (antibody, V domains shown)
VH: QVRLVESGGGVVQPGRSLRLSCAASGFTLSSYGMHWVRQAPGKGLEWVAIISYDGSDKYYADSVKGRFTISRDNSKNTLYLQMNSLRPEDTAMYYCAKPDRSSSPFAHWGQGTLVTVSS
VL: SYELTQPPSVSVSPGQTARITCSGDALPKQYAFWYQQKPGQTPVVVISKDSERPSGIPERFSGSSSGTTVTLTISGVQAEDEADYYCQSADSSGIWVFGGGTKLTVL
B7: WNV-120 (antibody, V domains shown)
VH: KVQLEESGGGWVKPGRSLRLSCGASGFRFDDYAMHWVRQVPGKGLEWVSGISWDSDGIGYADSVKGRFTISRDNAKNSLFLQMNSLRAEDTALYYCVKDKGWLIQGRFDSWGQGIRVTVSS
VL: DIVVTQSPDSLAVSLGERVTINCKTSQSVLYTFNNQNYLAWYQQKSGQPPKLLIYWASTRESGVPDRFSGSGSGTDFTLTISRLQAEDVAVYYCQQFYISPPGTFGQGTKVEIK
B8: WNV-98 (antibody, V domains shown)
VH: QVQLVESGGGLVKPGGSLRLSCAASGFPFTNYYMSWIRQAPGKGLEWISYITSRGDTAYYADSVKGRFTVARDNSKNSLYLQMNSLRAEDTAMYFCARGGDDYADSWGQGILVTVSS
VL: EIVLTQSPATLPLSPGERATLSCRASQSINTNLAWYQQKPGQAPRLLIYETSHRASAIPARFSGSGSGTDFTLKISSLEPEDLAIYYCQQYRNWPQTFGQGTRLEIK
B9: WNV-104 (antibody, V domains shown)
VH: QVQLVESGGGVVQPGTSLRLSCAASGFTFRSYGMHWVRQAPGKGLEWVALIWYDGSNKYYADSVKGRFTISRDNSRSTLYLQMNSLRAEDTAVYYCARDLGEYDSLVGPLYTARLGYWGQGTLVTVSS
VL: DIQMTQSPSSLSASVGDRVTMTCQASQDISNYLNWYQQKPGKAPNLLIYDASNLETGVPSRFSGSGSGTDFTFTISSLQPEDIATYYCQQYDNLPITFGQGTRLEIK
B10: WNV-117 (antibody, V domains shown)
VH: EVQLLESGGGLVQPGGSLRLSCAASGFTFSNYAMSWVRQAPGKGLEWVSSISDRGDYTYYADSVKGRFTISRDKSRNTLYLQIKSLRAEDTAVYYCAKCWGRGSYSGIPD
VL: B9 VL with M21I, T22S, Q27H, S30T, Y32F, N45K, T56A, P95F
B11: WNV-103 (antibody, V domains shown)
VH: EVQLVESGGGLLQPGGSLRLSCAASGFSFSRYWMHWVRQAPGKGLIWVSRINTDGSTTIYADSVKGRFTVSRDNAKNTLFLQMSRLRPEDTAVYYCARVIASPGISYGMDVWGHGTTVTVSS
VL: SHELTQPPSVSVSPGQTATITCSGDALPKQYAYWYQQKSGQAPVLVIYKDTKRPSGIPERFSGSSSGTVVTLTISGVQAEDEADYYCQSADISSTYVVFAGGTKLTVL
B12: WNV-97 (antibody, V domains shown)
VH: QVQLVESGGGLVQPGGSLRVSCAASGFTFSTYEMNWVRQAPGKGLEWVSYISNSGTIIYYADSVKGRFTISRDNAKNSLYLQMNSLRAEDTAIYYCGRVLRDRDVVAGPPARVWDYYYYGMDVWGQGTTVTVSS
VL: DIVMTQSPLSLPVTPGEPASISCRSSQSLLHSSGYNCLDWYLQKPGQSPQLLIYLRSNRASGVPDRFSGSGSGTDFTLKISRVEAEDVGVYYCMQTLQTPWTFGQGTKVEIK

Each binder was assayed against T1, recombinant soluble WNV NS1 protein (Native Antigen) (West Nile virus, strain of bought …, UniProt Q9Q6P4) (assay: ELISA). Conditions: both partners purified.
T1 construct: also called recombinant WNV NS1; recombinant, hexameric WNV NS1; source: bought: Native Antigen
T1 sequence (Q9Q6P4 792-1143): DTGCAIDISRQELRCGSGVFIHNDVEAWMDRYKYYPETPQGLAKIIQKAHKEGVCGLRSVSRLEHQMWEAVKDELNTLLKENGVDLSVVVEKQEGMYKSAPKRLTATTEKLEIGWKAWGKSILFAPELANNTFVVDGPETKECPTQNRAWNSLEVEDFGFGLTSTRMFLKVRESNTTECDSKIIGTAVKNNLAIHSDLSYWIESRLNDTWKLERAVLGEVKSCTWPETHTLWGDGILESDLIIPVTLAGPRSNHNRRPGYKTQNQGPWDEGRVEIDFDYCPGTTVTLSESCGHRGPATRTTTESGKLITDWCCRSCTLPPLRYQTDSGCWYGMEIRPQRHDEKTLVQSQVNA
B1: binds.
B2: binds.
B3: binds.
B4: binds.
B5: binds.
B6: binds.
B7: binds.
B8: binds.
B9: binds.
B10: binds.
B11: binds.

What follows are binders tested against T2, JEV NS1 protein (Native Antigen) (Japanese encephalitis virus, strain not …, UniProt P27395) (assay: ELISA). Conditions: both partners purified.
T2 construct: source: bought: Native Antigen
T2 sequence (P27395 795-1146): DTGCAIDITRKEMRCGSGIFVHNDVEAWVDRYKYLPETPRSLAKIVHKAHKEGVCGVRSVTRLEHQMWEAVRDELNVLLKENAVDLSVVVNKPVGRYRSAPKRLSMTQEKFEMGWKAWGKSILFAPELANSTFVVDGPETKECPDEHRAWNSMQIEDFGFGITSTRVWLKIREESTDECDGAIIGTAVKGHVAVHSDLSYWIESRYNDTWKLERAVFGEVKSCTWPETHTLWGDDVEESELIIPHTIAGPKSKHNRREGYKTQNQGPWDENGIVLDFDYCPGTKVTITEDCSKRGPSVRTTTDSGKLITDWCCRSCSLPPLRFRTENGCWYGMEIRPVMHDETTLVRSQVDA
B3: binds.
B6: binds.
B7: binds.

These binders were tested against T3, DENV2 NS1 protein (Native Antigen) (Dengue virus type 2, strain  …, UniProt P29990) (assay: ELISA). Conditions: both partners purified.
T3 construct: source: bought: Native Antigen
T3 sequence (P29990 776-1127): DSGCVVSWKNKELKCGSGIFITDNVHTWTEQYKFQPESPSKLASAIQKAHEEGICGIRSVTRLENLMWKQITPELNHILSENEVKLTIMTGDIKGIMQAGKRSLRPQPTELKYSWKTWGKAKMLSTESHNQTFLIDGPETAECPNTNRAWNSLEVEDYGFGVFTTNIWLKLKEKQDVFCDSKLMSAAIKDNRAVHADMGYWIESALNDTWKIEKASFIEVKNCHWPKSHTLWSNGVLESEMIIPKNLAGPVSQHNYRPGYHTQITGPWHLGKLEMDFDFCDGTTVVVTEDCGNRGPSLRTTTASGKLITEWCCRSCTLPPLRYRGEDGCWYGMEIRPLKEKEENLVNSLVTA
B3: binds.

The binders below were run against T4, TBEV NS1 protein (Native Antigen) (Tick-borne encephalitis virus, strain …, UniProt P14336) (assay: ELISA). Conditions: both partners purified.
T4 construct: source: bought: Native Antigen
T4 sequence (P14336 777-1128): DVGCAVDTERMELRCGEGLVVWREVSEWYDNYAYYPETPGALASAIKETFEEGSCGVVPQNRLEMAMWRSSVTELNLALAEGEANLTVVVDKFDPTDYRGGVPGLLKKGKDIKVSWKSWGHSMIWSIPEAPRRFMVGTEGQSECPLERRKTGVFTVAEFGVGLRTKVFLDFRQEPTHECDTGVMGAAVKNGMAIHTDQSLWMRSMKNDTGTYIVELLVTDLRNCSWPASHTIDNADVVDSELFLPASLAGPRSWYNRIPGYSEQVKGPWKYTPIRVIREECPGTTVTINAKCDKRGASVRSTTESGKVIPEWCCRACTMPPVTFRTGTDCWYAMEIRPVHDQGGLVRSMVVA
B3: binds.
B6: binds.
B12: binds.

These binders were tested against T5, full-length WNV NS1 (strain 382-99), wild type, expressed in HEK293T cells (West Nile virus, New York 1999, strain …, UniProt Q9Q6P4) (assay: flow cytometry on cells). Conditions: one partner purified.
T5 construct: also called WT NS1; WT WNV NS1; source: HEK293T, transfected (pFM-A1.2), on fixed cells
T5 sequence (Q9Q6P4 792-1143): as the sequence (Q9Q6P4 792-1143) above
B1: binds.
B2: binds.
B3: binds.
B4: binds.
B5: binds.
B6: binds.
B7: binds.
B8: binds.
B9: binds.
B10: binds.
B11: binds.
